The values below come from patent US20210269480A1 (published 2021).

*1 amine or outer side, *2 acyl side, *3 side chain or, on linkers, in order; H or OH if unused. Bridges are numbered along the chain shown (N, C = ends). Where no end group is shown, it is not given here. [ ]: non-standard residue; d: D form. TATA = O=C(CC[*:1])N1CN(C(=O)CC[*:2])CN(C(=O)CC[*:3])C1; 1Nal = N[C@@H](Cc1cccc2ccccc12)C(=O)O; 2Nal = N[C@@H](Cc1ccc2ccccc2c1)C(=O)O; NMehArg = CN[C@@H](CCCCNC(=N)N)C(=O)O; Hyp = O=C(O)[C@@H]1C[C@@H](O)CN1; NMeI = CC[C@H](C)[C@H](NC)C(=O)O; NMeT = CN[C@H](C(=O)O)[C@@H](C)O; dCya = N[C@H](CS(=O)(=O)O)C(=O)O; hArg = N=C(N)NCCCC[C@H](N)C(=O)O; NMeN = CN[C@@H](CC(N)=O)C(=O)O; Agb = N=C(N)NCC[C@H](N)C(=O)O; Nle = CCCC[C@H](N)C(=O)O

To fix the notation:
T1: human Nectin-4 (human, UniProt Q96NY8 32-349)
T1 construct: a Gly32-Ser349 FLAG construct is described only under the SPR assay; also called PVRL4
T1 sequence (looked up): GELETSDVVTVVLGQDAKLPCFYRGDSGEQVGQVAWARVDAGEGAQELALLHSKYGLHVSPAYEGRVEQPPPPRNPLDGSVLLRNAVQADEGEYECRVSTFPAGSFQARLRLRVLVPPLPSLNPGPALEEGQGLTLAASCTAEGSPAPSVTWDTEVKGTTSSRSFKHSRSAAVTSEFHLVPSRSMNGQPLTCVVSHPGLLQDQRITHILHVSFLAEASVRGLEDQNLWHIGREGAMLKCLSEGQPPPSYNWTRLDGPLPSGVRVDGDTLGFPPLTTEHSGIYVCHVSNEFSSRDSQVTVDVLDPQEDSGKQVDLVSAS

In the assay the target is T1, human Nectin-4. Kind of assay: FP competition, tracer SEQ ID NO 217. How it is done:
Peptides were diluted to an appropriate concentration in assay buffer as described in the direct binding assay with a maximum of 5% DMSO, then serially diluted 1 in 2. […] Measurements were conducted as for the direct binding assay, however the gain was determined prior to the first measurement. Data analysis was in Systat Sigmaplot version 12.0 where the mP values were fit to a user defined cubic equation to generate a Ki value: […]
As for ACPFGCMKTWSWPIWCTDK (linker 2-6-16 via TATA) [BCY3394], the Ki stood at 102 nM. Molecule HDSCPFGCMK(Ac)SWSWPIWCA (linker 4-8-18 via TATA) [BCY7273] registered a Ki of 84 nM. For the molecule HDACPFGCMEGWSWPIWCA (linker 4-8-18 via TATA) [BCY3390], the Ki is 302 nM. As for ACPFGCIKSWSWPIWCQME (linker 2-6-16 via TATA) [BCY3397], the figure is 33.2 nM.

The molecule ACPFGCMXNWSWPIWCTNK (core CPFGCM[K(Ac)]NWSWPIWC; TATA on 3 Cys) [BCY7266] yielded a Ki of 41 nM. The same measure for Ac-CP[1Nal][dR]CM[Hyp]DWSTP[Hyp]WC (linker 1-5-15 via TATA) [BCY8194]: 3.5 nM. The same measure for ACPFGCMKGWSWPIWCLKD (linker 2-6-16 via TATA) [BCY3395]: 17.4 nM; for DSECPFGCMSGWSWPIWCA (linker 4-8-18 via TATA) [BCY3389]: 99.8 nM. As for DPGCPFGCMPGWSWPIWCA (linker 4-8-18 via TATA) [BCY3392], the figure is 36.3 nM. Molecule Ac-CP[1Nal][dR]CM[Agb]DWSTP[Hyp]WC (linker 1-5-15 via TATA) [BCY8192] registered a Ki of 5 nM.

Consider ACPFGCQEDWSWPIWCLSE (linker 2-6-16 via TATA) [BCY3398], for which affinity was put at a Ki of 164 nM. The same measure for ACPFGCM[hArg]NWSWPIWCTNK (linker 2-6-16 via TATA) [BCY7265]: 38.3 nM. Turning to Ac-CP[1Nal][dCya]CM[hArg]DWSTP[Hyp]WC (linker 1-5-15 via TATA) [BCY8163], the Ki is 3 nM.

Ac-CPF[dD]CM[hArg]NWSTP[NMeI]WC (linker 1-5-15 via TATA) [BCY8158] displayed a Ki of 177 nM. The same measure for Ac-CP[1Nal][dR]CMPDWSTP[Hyp]WC (linker 1-5-15 via TATA) [BCY8193]: 3 nM; for HDSCPFGC[Nle]KSWSWPIWCA (linker 4-8-18 via TATA) [BCY7274]: 90.5 nM. Turning to Ac-CPF[dD]CM[hArg]NWS[NMeT]PIWC (linker 1-5-15 via TATA) [BCY8157], the Ki was 5 nM. This Ki lies about 18-fold lower than the previous one. On to ACWPLDDYWCPRICPQA (linker 2-10-14 via TATA) [BCY3401], for which the Ki amounted to 154 nM. Against the preceding molecule, the Ki is about 31-fold higher. The same measure for Ac-CP[1Nal][dD]CMPDWSTP[Hyp]WC (linker 1-5-15 via TATA) [BCY8182]: 2 nM; for ACPFGCMSDWSWPIWCSTD (linker 2-6-16 via TATA) [BCY3399]: 410 nM. As for Ac-CP[1Nal][dD]CM[hArg]DWDTP[Hyp]WC (linker 1-5-15 via TATA) [BCY8174], the figure is 12.3 nM; as for Ac-CP[1Nal][dD]CL[hArg]DWSTP[Hyp]WC (linker 1-5-15 via TATA) [BCY8212], 3 nM; as for Ac-CP[1Nal][dD]CM[hArg]DWTTP[Hyp]WC (linker 1-5-15 via TATA) [BCY8176], 3.5 nM.

As for Ac-CP[1Nal][dD]CM[hArg]DWSSP[Hyp]WC (linker 1-5-15 via TATA) [BCY8180], the Ki was found to be 3 nM. The same measure for Ac-CP[1Nal][dR]CM[hArg]DWDTP[Hyp]WC (linker 1-5-15 via TATA) [BCY8185]: 26.1 nM; for Ac-CP[1Nal][dR]CL[hArg]HWSTP[Hyp]WC (linker 1-5-15 via TATA) [BCY8214]: 6.3 nM; for Ac-CP[1Nal][dR]CM[hArg]DWTTP[Hyp]WC (linker 1-5-15 via TATA) [BCY8187]: 5 nM. The same measure for Ac-CP[1Nal][dR]CL[hArg]DWSTP[Hyp]WC (linker 1-5-15 via TATA) [BCY8213]: 3.5 nM. As for Ac-CP[1Nal][dR]CM[hArg]DWSSP[Hyp]WC (linker 1-5-15 via TATA) [BCY8191], the figure is 4.5 nM; as for Ac-CP[2Nal][dR]CM[hArg]DWSTP[Hyp]WC (linker 1-5-15 via TATA) [BCY8186], 6 nM.

The molecule [dH]DSCPFGCMKSWSWPIWCA (linker 4-8-18 via TATA) [BCY7272] showed a Ki of 41 nM. The same measure for Ac-CPF[dD]CM[hArg][NMeN]WSTPIWC (linker 1-5-15 via TATA) [BCY8154]: 8 nM. As for HDSCPFGCMKSWSWPIWCA (linker 4-8-18 via TATA) [BCY3393], the figure is 173 nM; as for Ac-CPF[dD]CM[NMehArg]NWSTPIWC (linker 1-5-15 via TATA) [BCY8153], 35 nM; as for Ac-CP[1Nal][dR]CM[hArg]DWSTP[Hyp]WC (linker 1-5-15 via TATA) [BCY8184], 3.2 nM. Regarding MDTCPFGCMEDWSWPIWCA (linker 4-8-18 via TATA) [BCY3391], the affinity corresponds to a Ki of 198 nM. As for ACPFGCQEHWSWPIWCTTA (linker 2-6-16 via TATA) [BCY3396], the figure is 102 nM.

Broadly, the Ki is the equilibrium dissociation constant of an inhibitor or competing ligand from its target. Read a low Ki as tighter binding.
